Results on three substances are retold here after paper PMC9413769.

In the test the target is eGFP-Unr (UniProt O75534). The experiment in a line: FRET or BRET.
Chain of UniProt O75534 (O75534 whole entry): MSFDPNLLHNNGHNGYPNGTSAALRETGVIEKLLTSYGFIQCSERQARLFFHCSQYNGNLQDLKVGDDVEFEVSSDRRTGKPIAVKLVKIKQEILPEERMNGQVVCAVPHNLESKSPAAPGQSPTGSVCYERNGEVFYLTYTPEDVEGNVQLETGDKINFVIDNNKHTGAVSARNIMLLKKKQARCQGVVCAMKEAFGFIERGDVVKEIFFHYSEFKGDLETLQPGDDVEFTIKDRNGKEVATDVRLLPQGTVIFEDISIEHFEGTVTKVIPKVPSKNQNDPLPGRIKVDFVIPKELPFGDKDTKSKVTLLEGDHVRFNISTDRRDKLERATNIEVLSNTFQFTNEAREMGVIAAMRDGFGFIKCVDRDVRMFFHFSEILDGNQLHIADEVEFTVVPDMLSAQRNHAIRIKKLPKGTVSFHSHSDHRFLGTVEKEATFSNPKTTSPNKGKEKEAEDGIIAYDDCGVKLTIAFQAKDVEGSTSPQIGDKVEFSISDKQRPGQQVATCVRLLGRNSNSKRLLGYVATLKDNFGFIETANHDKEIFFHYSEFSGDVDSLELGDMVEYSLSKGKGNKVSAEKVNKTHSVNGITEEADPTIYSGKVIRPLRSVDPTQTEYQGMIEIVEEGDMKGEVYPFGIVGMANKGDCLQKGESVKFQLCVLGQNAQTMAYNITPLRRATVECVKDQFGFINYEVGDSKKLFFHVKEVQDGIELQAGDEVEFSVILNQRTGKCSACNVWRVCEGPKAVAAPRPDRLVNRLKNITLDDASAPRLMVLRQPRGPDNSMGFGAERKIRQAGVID

The substance GagG2A-mCherry (natural protein) registered an FRET efficiency (one-population analysis) of 7.5%, an FRET efficiency of the interacting population (two-population analysis) of 46% and a percent of eGFP-Unr interacting (two-population analysis) of 25%.
NCp7-mCherry (natural protein) returned an FRET efficiency of the interacting population (two-population analysis) of over 35%, an average FRET efficiency (one-population analysis) of 5.1% and a percent of eGFP-Unr interacting (two-population analysis) of 21%.
The like results for mCherry-NCp7 (natural protein) were, in that order, over 35%, 6.8% and 26%.
